No end group written: not given here.
What was measured:
[1] = test system: EVs isolated from cow milk; experiment: Milk EV loading with Calcein AM; settings: 0.1 and 1 μM
Procedure: EVs were isolated from cow milk and loaded with neutral non-fluorescent Calcein AM (10 μM) for 48 hours at 37 C in PBS buffer at pH 8.5 (FIG. 30A). […] Purity and integrity of exosomes isolated from cow milk was confirmed by negative stain electron microscopy (EM). FIG. 30B) illustrates an exosome isolated from cow milk. Scale bar=50 nm. The methods described herein of isolation from milk were adapted to obtain high yields of EV, taking particular care not to cause rapid and/or large-scale precipitation of milk casein, as well as in centrifugation steps, which can reduce EV yields from milk.
An exemplar of these methods is shown in FIGS. 31A-31C wherein Milk EVs incubated with Calcein AM show time-(FIG. 31A), pH-(FIG. 31B) and concentration-dependent effects on uptake of Calcein by EVs. Important to this method in the case of Calcein AM, are the multiple chemical groups linked by ester bonds to the molecule, which shield it's negatively charged moieties. Cleavage of these groups by ester bond breaking activities within EVs results in Calcein becoming negatively charged, fluorescent and retained within the EV—as exemplified by the green spots seen in most figure panels in FIG. 31. In FIG. 31A EVs are illustrated that were incubated for 1, 2 or 3 hours in PBS at 37 C at pH 7.4 with Calcein AM (5 μM). […]

Connexin 43 hemichannels = Connexin 43 hemichannels (Homo sapiens, UniProt P17302); format: cell-based; settings: 0.1 mM Ca^2+; Gap19 (200 μM)
Procedure: Media containing 0.1 mM Ca^2+ was used to open Cx43 hemichannels in the presence of 50 μM alphaCT11 peptide and/or the hemichannel blockers; Gap19 (200 μM) and carbenoxolone ([…]).

[2] = test system: HC (hemichannel) activity; experiment: Hemichannel block in perfused hearts; design: species or system mouse; settings: 2 micromolar for 20 minutes before biotin-alphaCT11 infusion
Procedure: Briefly, isolated mouse hearts were perfused with 2 micromolar carbenoxolone for 20 minutes to block HC (hemichannel) activity prior to a 20 minute infusion with biotinylated alpha CT11 (biotin-alphaCT11) according to the method described in Example 20. […] Biotinylated alpha CT11 was detected and measured on LV cryosections by streptavidin Alexa647 as noted in association with FIGS. 18A-18E.

[3] = format: in vitro ADME
Excerpt: Despite efficacy of these peptides being delivered as unprotected peptide formulations, particularly when devlivered topically, delievery via many routes can be impeaded by degredation inside the body. Many other biologic and small molecule therapeutics also suffer from similar degradeation issues. Indeed, most unprotected short peptides and polynucleotides (e.g. miRNAs) are rapidly degraded in body fluids in vivo, thereby limiting the interest of the pharmaceutical industry in such molecules. This consideration is particularly relevant in pathologic situations, such as the heart post-MI, where hypoxia, oxygen free radicals, and […] prompt upregulation of degradation pathways. […] Protection by being loaded inside of an engineered vesicle can reduce degredation and/or can facilitate delivery of the cargo by forming channels with connexons present in cell membranes. See e.g. FIG. 17.

GST-Cx43 CT = target: T1, GST-Cx43 CT (Rattus norvegicus, UniProt P08050); experiment: EDC cross-linking of kinase reaction mixtures, Cx43 CT; format: binding; settings: 5, 10 and 25 μM
T1 construct: pGEX-6-P2 Cx43 CT amino acids 255-382; made in house; host or cells: E. coli BL21
Procedure: To characterize the interaction between the Cx43 CT substrate and peptides, the in vitro kinase assay was performed as above with modification and the constituents then subjected to a cross-linking reaction. The assay buffer used was 20 mM 3-(N-morpholino) propanesulfonic acid (MOPS), pH 7.2. All other reagents present in the kinase reaction were maintained as described above. The reaction was allowed to proceed at 37° C. for 15 minutes. Afterwards, the carbodiimide crosslinker 1-Ethyl-3-(3-dimethylaminopropyl) carbodiimide HCl (EDC) (Thermo, 22980) was added to each solution for a final concentration of 20 mM. The solution was allowed to cross-link for one hour at room temperature. The reaction was stopped by the addition of 4×LDS loading buffer, boiled for 5 minutes and subsequently separated by PAGE. The resulting gel was stained in Coomassie brilliant blue (Sigma, B0770) for two hours and destained in a solution of 4% methanol 7% acetic acid overnight. Gel bands were subsequently excised for mass spectrometric analysis. For the direct interaction between protein and peptides, PBS, pH 7.5 was used as the coupling buffer. The protein (50 μg/ml) and peptide (25 μM) were allowed to react at room temperature for one hour before EDAC was added to the reaction mixture. The reaction was Western blotted for Cx43, GST or NeutroAvidin. […]

ZO-1 PDZ2 = target: T2, ZO-1 PDZ2 (Homo sapiens, UniProt Q07157); experiment: Protein thermal shift assay, ZO-1 PDZ2; format: binding; settings: 500 μg/ml protein, 25-100 μM peptide
T2 construct: the second of the three PDZ (PDZ2) domains of ZO-1; made in house; host or cells: E. coli BL21
T2 sequence (Q07157 186-264 limits assumed): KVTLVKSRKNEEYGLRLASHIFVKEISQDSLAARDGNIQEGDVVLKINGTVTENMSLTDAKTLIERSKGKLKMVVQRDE
Procedure: Thermal stability of recombinant GST-PDZ2 or Cx43 CT in the presence or absence of peptides was determined in a 96-well format. Each assay well was composed of 500 μg/ml protein, 25-100 μM of each peptide in PBS buffer, pH7.4. All assays were performed independently six times. Samples were generally prepared in 96-well plates at final volumes of 20 μL. The fluorescent dye SYPRO Orange (5000× concentrate in DMSO, ThermoFisher, S6650) was added to a final concentration of 8X. Reactions were run on QuantStudio 6 Flex Real-Time PCR system (Applied Biosystems, part of Life Technologies Corporation, CA) according to the manufacturer's recommendations using a melt protocol in 0.05-degree/see increments from 25° C. to 95° C. The Reporter Dye was “ROX” and quencher Dye and passive reference were selected as “None” for the melt curve according to manufacturer's instructions. The data were analyzed using Protein Thermal Shift™ Software v1.3 package (Applied Biosystems, CA).

Hela cells = experiment: Cellular uptake of RhodB-aCT11 peptides; format: cell-based; settings: 200 to 2000 μM, 30 or 90 minutes, 37 C
Excerpt: Cells can take up the peptide, cytoplasmic esterases will cleave the allyl groups converting the peptide to RhodB-aCT11. RhodB-aCT11-Est, or any chemically modified drug molecule designed for cell uptake using ester bonded groups or related chemical modifications, can be packaged as cargo into EVs and exported by the cell into the media. EVs loaded with cargo molecules by this method can then be isolated using standard protocols and used in the treatment and other methods detailed herein.
Monolayers of Hela cells incubated with fluorescent-tagged RhodamineB-aCT11-Est, a cell-permeant peptide with allyl groups linked by ester bonds at aspartic (D) and glutamic (E) acid residues, as well as its carboxyl terminus are shown in FIG. 34A. The cells were incubated for 30 or 90 minutes at 37 C at pH 7.4 with different concentrations of peptides between 200 and 2000 μM. […] Cellular uptake can be observed in FIG. 34A to be particularly evident following 90 minutes at higher peptide concentrations (i.e., >1000 μM). […] RhodB-aCT11-Est taken up in this manner by cells can be packaged as cargo into EVs and following isolation can these EVs be used in treatment and other methods detailed herein.

[4] = target: Cx43 CT (Connexin 43 carboxyl terminus, amino acids 255 to 382) (UniProt P08050 255-382, limits assumed); experiment: cell-based or functional assay
Chain of Cx43 CT (Connexin 43 carboxyl terminus, amino acids 255 to 382) (P08050 255-382 limits assumed): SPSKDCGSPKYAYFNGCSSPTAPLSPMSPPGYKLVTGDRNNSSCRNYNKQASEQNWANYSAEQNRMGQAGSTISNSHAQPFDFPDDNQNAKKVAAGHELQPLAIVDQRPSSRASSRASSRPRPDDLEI

Chain of Connexin 43 hemichannels (P17302 2-382 limits assumed): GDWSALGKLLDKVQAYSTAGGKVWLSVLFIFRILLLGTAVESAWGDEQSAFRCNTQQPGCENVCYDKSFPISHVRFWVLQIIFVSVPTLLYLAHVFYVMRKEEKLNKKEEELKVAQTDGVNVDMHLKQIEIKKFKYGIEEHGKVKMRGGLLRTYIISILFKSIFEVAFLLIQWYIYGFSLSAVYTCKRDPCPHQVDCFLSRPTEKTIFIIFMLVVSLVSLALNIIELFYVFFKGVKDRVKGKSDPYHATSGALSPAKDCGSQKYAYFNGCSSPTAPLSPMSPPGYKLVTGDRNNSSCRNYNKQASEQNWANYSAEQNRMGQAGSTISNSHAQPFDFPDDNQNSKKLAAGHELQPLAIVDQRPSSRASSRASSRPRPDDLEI
T1 sequence (P08050 255-382): as the sequence (P08050 255-382 limits assumed) above

O=S(=O)(F)Cc1ccccc1 [PMSF]
Calcein uptake into and retention within milk EVs [1]: respectively inhibited and blocked

CC1(C)[C@@H](OC(=O)CCC(=O)O)CC[C@]2(C)[C@H]3C(=O)C=C4[C@@H]5C[C@@](C)(C(=O)O)CC[C@]5(C)CC[C@@]4(C)[C@]3(C)CC[C@@H]12 [carbenoxolone]
alphaCT11 uptake in presence of hemichannel blocker (Connexin 43 hemichannels): Dramatically lower levels of peptide uptake | cytoplasmic levels of alpha CT11 in myocytes [2]: significant reductions (p<0.05) in cytoplastic levels of alpha CT11

Gap19: Cx43 hemichannel blocker (KQIEIKKFK; Gap19; UniProt P17302 128-136, looked up, fragment)
alphaCT11 uptake in presence of hemichannel blocker (Connexin 43 hemichannels): Dramatically lower levels of peptide uptake

RPRPDDLEI [alpha CT11, RPRPDDLEI]
time to degradation in blood serum [3]: about 30 minutes

RQPKIWFPNRRKPWKK LPAARIAPR (RQPKIWFPNRRKPWKKLPAARIAPR) [M4 scram., reference compound]
EDC cross-linking to Cx43 CT (GST-Cx43 CT): no evidence of cross-linking | PDZ2 melt temperature (Tm) (ZO-1 PDZ2): PDZ2 interaction incompetent

RhodB-aCT11: fluorescently tagged RhodamineB aCT11 peptide (RPRPDDLEI) without ester bonded groups (also: RhodamineB label, site not given here)
cellular uptake (Hela cells): little evidence for uptake of RhodB-aCT11 is observed | cellular uptake (Hela cells; listed as RhodamineB aCT11): does not indicate cellular uptake

RQPKIWFPNRRKPWKKRPRPDDLEI (not fully specified) [alpha CT1]
Cx43 S368 phosphorylation (PKC-ε kinase assay, blots of pS368 over total Cx43) [4]: ~3 fold
